Laboratory results: IntAct's records for PubMed 10660620

B1: Paired immunoglobulin-like type 2 receptor alpha (Homo sapiens), Q9UKJ1 (parent)
chain: MGRPLLLPLLPLLLPPAFLQPSGSTGSGPSYLYGVTQPKHLSASMGGSVEIPFSFYYPWELATAPDVRISWRRGHFHRQSFYSTRPPSIHKDYVNRLFLNWTEGQKSGFLRISNLQKQDQSVYFCRVELDTRSSGRQQWQSIEGTKLSITQAVTTTTQRPSSMTTTWRLSSTTTTTGLRVTQGKRRSDSWHISLETAVGVAVAVTVLGIMILGLICLLRWRRRKGQQRTKATTPAREPFQNTEEPYENIRNEGQNTDPKLNPKDDGIVYASLALSSSTSPRAPPSHRPLKSPQNETLYSVLKA

Variants of: B1
Details: with ptn6_human PTPN6, P29350
Chain of ptn6_human PTPN6, P29350 (P29350 whole entry): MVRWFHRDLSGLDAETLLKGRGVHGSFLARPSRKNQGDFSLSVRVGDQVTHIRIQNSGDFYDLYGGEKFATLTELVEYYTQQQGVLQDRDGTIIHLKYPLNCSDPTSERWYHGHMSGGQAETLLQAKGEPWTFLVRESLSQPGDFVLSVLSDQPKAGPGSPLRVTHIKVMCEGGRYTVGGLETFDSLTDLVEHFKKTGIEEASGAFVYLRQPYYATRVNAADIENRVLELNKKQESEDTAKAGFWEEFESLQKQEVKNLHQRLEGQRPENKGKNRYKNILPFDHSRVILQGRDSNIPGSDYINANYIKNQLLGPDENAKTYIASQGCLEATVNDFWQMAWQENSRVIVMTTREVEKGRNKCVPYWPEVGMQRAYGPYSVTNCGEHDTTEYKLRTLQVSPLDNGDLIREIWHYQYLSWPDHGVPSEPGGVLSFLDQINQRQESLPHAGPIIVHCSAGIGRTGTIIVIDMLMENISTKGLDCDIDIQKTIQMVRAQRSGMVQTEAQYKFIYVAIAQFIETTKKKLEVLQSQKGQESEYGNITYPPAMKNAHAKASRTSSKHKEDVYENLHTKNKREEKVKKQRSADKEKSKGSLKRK

**Q.** Y269F;Y298F was tested. Which “effect of a mutation on the interaction” value did it give?
**A.** decreasing interaction

**Q.** For Y269F, which “effect of a mutation on the interaction” value is on record?
**A.** decreasing interaction
